From patent publication US20220213181A1 (Novartis, published 2022)

How the values were obtained:
[1] = target: T1, Mouse ANGPTL4(26-410)-FLAG-His6-Avi (mouse, UniProt Q9Z1P8 24-410, biotin on the C-terminal Avi tag (BirA) where the protein is immobilised); assay: Octet (ForteBio) kinetics; average KD of the runs; Octet kinetics; average KD of the two mouse runs
T1 sequence: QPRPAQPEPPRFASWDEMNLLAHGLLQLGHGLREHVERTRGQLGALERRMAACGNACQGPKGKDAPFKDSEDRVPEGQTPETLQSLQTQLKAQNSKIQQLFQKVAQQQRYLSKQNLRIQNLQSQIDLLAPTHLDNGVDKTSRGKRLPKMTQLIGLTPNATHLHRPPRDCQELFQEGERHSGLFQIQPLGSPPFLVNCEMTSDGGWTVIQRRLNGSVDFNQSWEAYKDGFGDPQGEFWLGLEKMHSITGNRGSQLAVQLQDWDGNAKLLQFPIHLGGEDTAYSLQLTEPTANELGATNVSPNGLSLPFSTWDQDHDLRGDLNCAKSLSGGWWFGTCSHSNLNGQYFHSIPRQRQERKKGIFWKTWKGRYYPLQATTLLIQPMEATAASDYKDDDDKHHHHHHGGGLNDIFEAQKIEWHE

[2] = target: T2, Human ANGPTL4(26-406)-FLAG-His6-Avi (human, UniProt Q9BY76 24-406, biotin on the C-terminal Avi tag (BirA) where the protein is immobilised); assay: Octet (ForteBio) kinetics, biotinylated antigen on streptavidin sensor, IgG in solution; slower than the limit of detection
T2 construct: the text calls it 20 amino acids), then QP, ANGPTL4 26-406 and FLAG-His6-Avi; the signal peptide is left out here; also called full length human ANGPTL4; hANGPTL4
T2 sequence: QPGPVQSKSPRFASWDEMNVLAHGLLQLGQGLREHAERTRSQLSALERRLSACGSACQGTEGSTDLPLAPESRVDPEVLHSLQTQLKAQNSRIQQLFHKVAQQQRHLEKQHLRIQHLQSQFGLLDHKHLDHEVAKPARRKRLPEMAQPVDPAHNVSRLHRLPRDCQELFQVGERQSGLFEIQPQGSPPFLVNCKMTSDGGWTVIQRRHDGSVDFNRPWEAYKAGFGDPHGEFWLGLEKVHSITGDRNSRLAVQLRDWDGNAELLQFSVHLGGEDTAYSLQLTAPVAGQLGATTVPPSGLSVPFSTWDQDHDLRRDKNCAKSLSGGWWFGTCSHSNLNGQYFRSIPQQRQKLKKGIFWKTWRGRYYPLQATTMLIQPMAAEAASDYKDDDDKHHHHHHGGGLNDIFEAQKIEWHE

[3] = target: T3, Human ANGPTL4(26-161)-FLAG-His6-Avi (human, biotin on the C-terminal Avi tag (BirA) where the protein is immobilised); assay: as above
T3 construct: also called human ANGPTL4 N-terminal coiled coil domain; hANGPTL4-CCD
T3 chain: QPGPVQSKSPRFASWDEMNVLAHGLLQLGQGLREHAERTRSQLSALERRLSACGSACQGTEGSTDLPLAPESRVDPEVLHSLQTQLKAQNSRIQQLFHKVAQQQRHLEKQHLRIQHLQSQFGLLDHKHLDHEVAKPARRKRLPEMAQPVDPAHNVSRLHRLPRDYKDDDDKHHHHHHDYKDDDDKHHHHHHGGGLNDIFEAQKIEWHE

[4] = target: T4, Cynomolgus monkey ANGPTL4(26-406)-FLAG-His6-Avi (cynomolgus monkey, biotin on the C-terminal Avi tag (BirA) where the protein is immobilised); assay: as above
T4 construct: also called Cyno ANGPTL4 (26-406)
T4 chain: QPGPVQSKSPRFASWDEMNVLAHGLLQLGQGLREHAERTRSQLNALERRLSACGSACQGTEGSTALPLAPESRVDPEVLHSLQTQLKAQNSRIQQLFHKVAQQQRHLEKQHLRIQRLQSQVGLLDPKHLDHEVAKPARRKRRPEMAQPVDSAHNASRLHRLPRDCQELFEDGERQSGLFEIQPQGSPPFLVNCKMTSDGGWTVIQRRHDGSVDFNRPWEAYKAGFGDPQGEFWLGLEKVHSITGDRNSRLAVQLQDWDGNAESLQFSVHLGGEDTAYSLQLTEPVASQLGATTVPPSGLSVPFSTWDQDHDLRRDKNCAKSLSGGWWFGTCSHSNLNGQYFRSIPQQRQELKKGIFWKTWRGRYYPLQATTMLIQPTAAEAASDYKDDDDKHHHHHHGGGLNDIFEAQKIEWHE

[5] = target: T5, Rat ANGPTL4(24-405)-FLAG-His6-Avi (rat, UniProt Q6TMA8 24-405, biotin on the C-terminal Avi tag (BirA) where the protein is immobilised); assay: Octet (ForteBio) kinetics, biotinylated antigen on streptavidin sensor, IgG in solution; Octet kinetics, rat ANGPTL4 on the sensor, antibody up to 25 nM; run 2
T5 sequence: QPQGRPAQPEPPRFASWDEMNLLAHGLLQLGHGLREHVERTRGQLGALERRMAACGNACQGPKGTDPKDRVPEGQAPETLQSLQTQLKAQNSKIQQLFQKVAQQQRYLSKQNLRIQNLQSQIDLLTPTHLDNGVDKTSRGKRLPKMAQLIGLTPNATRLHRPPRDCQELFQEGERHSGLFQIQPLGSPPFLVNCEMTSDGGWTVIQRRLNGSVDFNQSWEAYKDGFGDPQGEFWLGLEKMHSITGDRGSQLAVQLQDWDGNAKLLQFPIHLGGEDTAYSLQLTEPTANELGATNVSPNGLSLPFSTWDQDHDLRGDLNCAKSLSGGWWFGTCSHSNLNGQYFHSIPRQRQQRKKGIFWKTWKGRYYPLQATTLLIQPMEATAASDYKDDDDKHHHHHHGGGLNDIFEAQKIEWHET

B1: NEG276-LALA (antibody, human IgG1, kappa, L234A L235A)
heavy: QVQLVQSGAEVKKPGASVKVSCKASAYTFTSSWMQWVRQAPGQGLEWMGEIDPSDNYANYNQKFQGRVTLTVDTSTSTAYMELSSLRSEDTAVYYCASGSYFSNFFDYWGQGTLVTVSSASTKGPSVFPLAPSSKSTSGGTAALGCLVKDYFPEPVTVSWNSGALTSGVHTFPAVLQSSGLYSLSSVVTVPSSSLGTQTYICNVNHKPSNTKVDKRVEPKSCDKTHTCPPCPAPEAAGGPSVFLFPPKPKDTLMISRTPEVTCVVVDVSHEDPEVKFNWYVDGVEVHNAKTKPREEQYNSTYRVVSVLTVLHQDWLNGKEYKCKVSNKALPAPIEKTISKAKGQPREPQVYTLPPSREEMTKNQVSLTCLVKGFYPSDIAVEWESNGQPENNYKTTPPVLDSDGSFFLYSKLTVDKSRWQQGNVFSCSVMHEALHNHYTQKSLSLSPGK
light: EIVMTQSPATLSVSPGERATLSCKASQDIGSNLNWLQQKPGQAPRRLIYAVSNRGPGIPARFSGSRSGSEYTLTISSLQSEDFAVYYCLQYASSPWTFGQGTKVEIKRTVAAPSVFIFPPSDEQLKSGTASVVCLLNNFYPREAKVQWKVDNALQSGNSQESVTEQDSKDSTYSLSSTLTLSKADYEKHKVYACEVTHQGLSSPVTKSFNRGEC
B1 showed a Kd [1] of 6.2 nM, a koff [2] of 4.9e-07 s⁻¹ and a koff [3] of 3.1e-06 s⁻¹. For the same binder, the koff [4] was 4.1e-06 s⁻¹, the koff [5] was 0.0011 s⁻¹ and the kon [5] was 170000 M⁻¹ s⁻¹.
